Experimental data from the supplement of paper PMC10724198.

What was measured:
[1] = tested on: Saccharomyces cerevisiae; test: protein stability index of tFT-peptide fusion in wild type (PSI (0-1 scale)); higher = more stable (slower turnover); settings: genetic background: wild type
Description: (§1)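 MPS profiling in S. cerevisiae of two library types built from selected 12-aa C-degron peptides (IN1, IN2, LN1, LN3, VN2, R1-R5, W1-W3, Atg1 and Rpa12 C-termini): saturation mutagenesis libraries and C-terminal +1 capping libraries (13 aa). Each peptide is fused to the C-terminus of a sfGFP-mCherry timer, after a GGGS linker. Cells are FACS-sorted into 8 mCherry/sfGFP bins and sequenced. PSI runs from 0 (unstable) to 1 (stable), measured once in wild type and in the das1Δ or doa10Δ background.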

[2] = tested on: Saccharomyces cerevisiae; test: protein stability index of tFT-peptide fusion in deletion strain of DAS1 (PSI (0-1 scale)); higher = more stable (slower turnover)
Description: as §1
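Throughout, for protein stability index of tFT-peptide fusion in deletion strain of DAS1: PSI is a weighted mean of each variant's read distribution over the sorted stability bins, computed only for variants having over 10 reads in total.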
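Throughout, for protein stability index of tFT-peptide fusion in wild type: PSI derived as read-weighted mean over the 8 sorting bins, only variants exceeding 10 total reads kept, mCherry placed adjacent to the peptide and sfGFP distal.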

Sequence | protein stability index [1] | protein stability index [2]
KKHKKGQKQKCN | 0.312 | 0.584
KKHKKGQKQTIN | 0.362 | 0.571
PDKVNHLIKLLN | 0.129 | 0.658
LKINRQKMNHQN | 0.209 | 0.682
KKHKKGKKQKIN | 0.0795 | 0.579
VRGAVGGWRDVG | 0.606 | 0.629
PDKRNNLIKLLN | 0.155 | 0.589
ARWRVGLWRGAC | 0.123 | 0.681
LKILRQKMNHQI | 0.179 | 0.67
LKILRQKMNHQNM | 0.601 | 0.592
PDKINHLIKLLN | 0.135 | 0.578
VREAVGGWRLVG | 0.143 | 0.676
ARWRVGLWRDAS | 0.6 | 0.702
ARWQVGLWRGAS | 0.444 | 0.656
FSMRWTLRYWVN | 0.0387 | 0.438
PDKRNHLTKLLN | 0.17 | 0.584
PSLEASFWRVVG | 0.121 | 0.673
KKDKKGQKQKIN | 0.104 | 0.601
FSMRWTFRYQVN | 0.0962 | 0.539
VRGAVGRWRLVG | 0.159 | 0.669

Sequence | protein stability index [1] | protein stability index [2]
VWGAVGGWRLVG | 0.134 | 0.692
ARWRVGLWRGIS | 0.109 | 0.68
PDKRNSLIKLLN | 0.163 | 0.723
ARWRVGLWRAAS | 0.117 | 0.683
CTSCGYWFRTNN | 0.438 | 0.668
AAWRVGLWRGAS | 0.503 | 0.72
FSWRWTFRYWVN | 0.0592 | 0.756
FSMRWTIRYWVN | 0.0535 | 0.38
FSMRWTFRYWTN | 0.0691 | 0.644
LHILRQKMNHQN | 0.105 | 0.662
ARWRVGLWRGKS | 0.653 | 0.679
FRGAVGGWRLVG | 0.192 | 0.685
VRGAVGGNRLVG | 0.681 | 0.67
CTSCGYSFRTNN | 0.391 | 0.695
KMHKKGQKQKIN | 0.1 | 0.857
LKILRQKMTHQN | 0.273 | 0.688
VRGAVGGWRTVG | 0.157 | 0.674
KKHKKGGKQKIN | 0.169 | 0.653
FSMRWTFIYWVN | 0.0416 | 0.263
KKKKKGQKQKIN | 0.164 | 0.567

Sequence | protein stability index [1] | protein stability index [2]
FSMRWTFRYWWN | 0.271 | 0.497
VDKRNHLIKLLN | 0.105 | 0.609
PDKANHLIKLLN | 0.183 | 0.594
LVVYLSCVACINN | 0.0233 | 0.037
RLIQPLNVQFLN | 0.0919 | 0.575
CTSCGYKFRTHN | 0.325 | 0.717
VRGTVGGWRLVG | 0.151 | 0.705
RLIQPLPVQTLN | 0.163 | 0.68
LKILRQKMNHQNG | 0.657 | 0.662
FSMRWTFRYWVS | 0.181 | 0.547
LKILRQKMCHQN | 0.217 | 0.68
LVVYLSCVAVIN | 0.0169 | 0.0276
FSMRWTFRYWVP | 0.541 | 0.541
LKILRQKWNHQN | 0.194 | 0.662
LVVYWSCVACIN | 0.0151 | 0.0704
PDKRNHLIKGLN | 0.546 | 0.619
CTSCGYKFRTNT | 0.579 | 0.693
PDKRNHLIKLLS | 0.102 | 0.653
